{"source": "paper PMC3466254", "about": "“Cthrc1, a Novel Circulating Hormone Regulating Metabolism” (PLoS ONE, 2012)", "proteins": {"B1": {"name": "rat Cthrc1 with a C terminal myc/6×His tag, labeled with 125I (natural protein, UniProt Q8CG08 33-245, looked up)", "chain": "SENPKVKQKALIRQREVVDLYNGMCLQGPAGVPGRDGSPGANGIPGTPGIPGRDGFKGEKGECLRESFEESWTPNYKQCSWSSLNYGIDLGKIAECTFTKMRSNSALRVLFSGSLRLKCRNACCQRWYFTFNGAECSGPLPIEAIIYLDQGSPELNSTINIHRTSSVEGLCEGIGAGLVDVAIWVGTCSDYPKGDASTGWNSVSRIIIEELPK", "modifications": "labeled with 125I (iodination tubes); residues not stated", "notes": "Cthrc1 (collagen triple helix repeat containing 1), rat; secreted into the conditioned medium; also called 125I-Cthrc1; 125I-labeled Cthrc1"}}, "biological_target": "the molecule itself", "experiment": "non-reducing SDS-PAGE with autoradiography; 1 µl of plasma of Cthrc1 null mice taken 30 min after intra-arterial injection of purified 125I-Cthrc1; SDS-PAGE under non-reducing conditions, autoradiography", "data": [{"protein": "B1", "values": [{"measurement": "binding result", "value": "binds"}]}]}
